Data reported in the supplement of paper PMC9233669.
Fewer inactive variants are shown than the library holds.

Assays:
biotinyl-Phe-oxazolone = assay: self-aminoacylation, catalytic enhancement (BFO) (fold over background); higher = more active; k-Seq, kA / k0A0; sequences stand for … in GGGAAUGGAUCCACAUCUACGAAUUC…UUCACUGCAGACUUGACGAAGCUG
Method in brief: (§1)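 Mutagenized RNA pools with a 21-nt variable region (0.43 μM) were reacted with each biotinyl-aminoacyl-oxazolone at 2–1250 μM for 90 minutes at room temperature, in 50 μL HEPES/NaCl/KCl/MgCl2/CaCl2 buffer containing 5% acetonitrile at pH 6.9–7.0. RNA captured on streptavidin was quantified by triplicate qPCR and by Illumina sequencing. The fraction reacted for each sequence was fit to a pseudo-first-order model with bootstrapping, and catalytic enhancement is the median kA divided by the uncatalyzed rate, taken as the low-activity peak of a bimodal Gaussian fit.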

biotinyl-Ile-oxazolone = assay: self-aminoacylation, catalytic enhancement (BIO) (fold over background); higher = more active; k-Seq, kA / k0A0; sequences stand for … in GGGAAUGGAUCCACAUCUACGAAUUC…UUCACUGCAGACUUGACGAAGCUG
Method in brief: as §1

biotinyl-Met-oxazolone = assay: self-aminoacylation, catalytic enhancement (BMO) (fold over background); higher = more active; k-Seq, kA / k0A0; sequences stand for … in GGGAAUGGAUCCACAUCUACGAAUUC…UUCACUGCAGACUUGACGAAGCUG
Method in brief: as §1

biotinyl-Val-oxazolone = assay: self-aminoacylation, catalytic enhancement (BVO) (fold over background); higher = more active; k-Seq, kA / k0A0; sequences stand for … in GGGAAUGGAUCCACAUCUACGAAUUC…UUCACUGCAGACUUGACGAAGCUG
Method in brief: as §1

biotinyl-Leu-oxazolone = assay: self-aminoacylation, catalytic enhancement (BLO) (fold over background); higher = more active; k-Seq, kA / k0A0; sequences stand for … in GGGAAUGGAUCCACAUCUACGAAUUC…UUCACUGCAGACUUGACGAAGCUG
Method in brief: as §1

biotinyl-Trp-oxazolone = assay: self-aminoacylation, catalytic enhancement (BWO) (fold over background); higher = more active; k-Seq, kA / k0A0; sequences stand for … in GGGAAUGGAUCCACAUCUACGAAUUC…UUCACUGCAGACUUGACGAAGCUG
Method in brief: as §1

| Sequence | self-aminoacylation (biotinyl-Phe-oxazolone) | self-aminoacylation (biotinyl-Ile-oxazolone) | self-aminoacylation (biotinyl-Met-oxazolone) | self-aminoacylation (biotinyl-Val-oxazolone) | self-aminoacylation (biotinyl-Leu-oxazolone) | self-aminoacylation (biotinyl-Trp-oxazolone) |
| --- | --- | --- | --- | --- | --- | --- |
| AAGUUUGCUAAUAGUCUCGAG [Fam3.1 aminoacylation ribozyme variant] | 2.01 | 1.06 | 1.02 | 0.95 | 1.14 | 1.96 |
| AAGUUUGCUAAUAGUGGCAAA [Fam3.1 aminoacylation ribozyme variant] | 0.91 | 1.09 | 0.891 | 1.04 | 0.789 | 1.24 |
| AAGUUUGCUAAUAGUGGCAAG [Fam3.1 aminoacylation ribozyme variant] | 0.894 | 0.737 | 0.734 | 0.739 | 0.692 | 0.773 |
| AAGUUUGCUAAUAGUUGGAAG [Fam3.1 aminoacylation ribozyme variant] | 1.47 | 1.29 | 1.38 | 1.25 | 1.21 | 0.896 |
| AAGUUUGCUAAUAUUAGCAAG [Fam3.1 aminoacylation ribozyme variant] | 1.2 | 1.28 | 1.32 | 1.24 | 1.08 | 1.3 |
| AAGUUUGCUAAUAUUCGCAAC [Fam3.1 aminoacylation ribozyme variant] | 0.972 | 1.15 | 1.22 | 1.17 | 1.11 | 2.36 |
| AAGUUUGCUAAUAUUCGCAGG [Fam3.1 aminoacylation ribozyme variant] | 1.32 | 1.35 | 1.68 | 1.31 | 1.4 | 2.04 |
| AAGUUUGCUAAUAUUCGCAUG [Fam3.1 aminoacylation ribozyme variant] | 1.47 | 1.14 | 1.19 | 1.19 | 1.08 | 0.844 |
| AAGUUUGCUAAUAUUCUCAAG [Fam3.1 aminoacylation ribozyme variant] | 1.04 | 1.1 | 1.17 | 1.18 | 1.15 | 1.48 |
| AAGUUUGCUAAUAUUGGCAAG [Fam3.1 aminoacylation ribozyme variant] | 0.81 | 0.773 | 0.894 | 0.784 | 0.847 | 1.22 |
| AAGUUUGCUAAUCCUCGCAAG [Fam3.1 aminoacylation ribozyme variant] | 0.881 | 0.706 | 0.628 | 0.733 | 0.725 | 0.599 |
| AAGUUUGCUAAUCGUCGCAAU [Fam3.1 aminoacylation ribozyme variant] | 0.833 | 1.39 | 1.3 | 1.3 | 1.04 | 1.03 |
| AAGUUUGCUAAUCGUCGCGAG [Fam3.1 aminoacylation ribozyme variant] | 1.8 | 1.04 | 1.27 | 1.01 | 1.36 | 1.49 |
| AAGUUUGCUAAUCGUCGCUAG [Fam3.1 aminoacylation ribozyme variant] | 1.07 | 0.976 | 0.844 | 0.834 | 0.87 | 0.871 |
| AAGUUUGCUAAUCGUCGUAAG [Fam3.1 aminoacylation ribozyme variant] | 6.16 | 0.808 | 0.85 | 0.947 | 0.75 | 2.06 |
| AAGUUUGCUAAUGGUAGCAAG [Fam3.1 aminoacylation ribozyme variant] | 1.12 | 1.02 | 0.976 | 0.994 | 0.692 | 0.649 |
| AAGUUUGCUAAUGGUCCCAAG [Fam3.1 aminoacylation ribozyme variant] | 1.11 | 0.977 | 0.976 | 1 | 0.908 | 1.21 |
| AAGUUUGCUAAUUGUCGCCAG [Fam3.1 aminoacylation ribozyme variant] | 5.34 | 1.49 | 1.53 | 1.39 | 1.49 | 1.73 |
| AAGUUUGCUAAUUGUCGCGAG [Fam3.1 aminoacylation ribozyme variant] | 17.4 | 2.04 | 1.75 | 1.68 | 2.02 | 2.7 |
| AAGUUUGCUAAUUGUGGCAAG [Fam3.1 aminoacylation ribozyme variant] | 0.701 | 0.735 | 0.688 | 0.817 | 0.988 | 0.773 |
| AAGUUUGCUACUAGUCGCAUG [Fam3.1 aminoacylation ribozyme variant] | 1.11 | 0.915 | 0.717 | 1.09 | 0.707 | 0.836 |
| AAGUUUGCUAGUAGUCACAAG [Fam3.1 aminoacylation ribozyme variant] | 1.37 | 1.05 | 1.43 | 1.08 | 0.962 | 0.986 |
| AAGUUUGCUAGUAGUCGCAGG [Fam3.1 aminoacylation ribozyme variant] | 2.48 | 0.89 | 1.02 | 0.799 | 0.956 | 1.05 |
| AAGUUUGCUAGUUGUCGCAAG [Fam3.1 aminoacylation ribozyme variant] | 3.68 | 1.07 | 0.898 | 1.08 | 1.16 | 1.18 |
| AAGUUUGCUAUGAGUCGCAAG [Fam3.1 aminoacylation ribozyme variant] | 0.664 | 0.692 | 0.644 | 0.974 | 0.778 | 0.54 |
| AAGUUUGCUAUUAGUCGCAAA [Fam3.1 aminoacylation ribozyme variant] | 1.58 | 1.52 | 1.84 | 1.35 | 1.47 | 1.74 |

| Sequence | self-aminoacylation (biotinyl-Phe-oxazolone) | self-aminoacylation (biotinyl-Ile-oxazolone) | self-aminoacylation (biotinyl-Met-oxazolone) | self-aminoacylation (biotinyl-Val-oxazolone) | self-aminoacylation (biotinyl-Leu-oxazolone) | self-aminoacylation (biotinyl-Trp-oxazolone) |
| --- | --- | --- | --- | --- | --- | --- |
| AAGUUUGCUAUUGGUCGCAAG [Fam3.1 aminoacylation ribozyme variant] | 1.46 | 0.787 | 0.756 | 0.76 | 1.05 | 0.66 |
| AAGUUUGCUCAAAGUCGCAAG [Fam3.1 aminoacylation ribozyme variant] | 2.29 | 1.24 | 1.37 | 0.877 | 0.974 | 1.13 |
| AAGUUUGCUCAUAGUCCCAAG [Fam3.1 aminoacylation ribozyme variant] | 1.29 | 0.902 | 0.856 | 1.06 | 0.902 | 0.793 |
| AAGUUUGCUCAUAGUCGCAUG [Fam3.1 aminoacylation ribozyme variant] | 0.909 | 1.05 | 0.893 | 1.04 | 0.903 | 0.856 |
| AAGUUUGCUCAUAGUCUCAAG [Fam3.1 aminoacylation ribozyme variant] | 1.98 | 0.872 | 0.869 | 0.901 | 0.977 | 0.98 |
| AAGUUUGCUCUUAGUCGCAAG [Fam3.1 aminoacylation ribozyme variant] | 1.53 | 0.73 | 0.758 | 0.813 | 0.786 | 0.65 |
| AAGUUUGCUGAUACUCGCAAG [Fam3.1 aminoacylation ribozyme variant] | 0.915 | 1.11 | 0.744 | 0.897 | 0.885 | 1.07 |
| AAGUUUGCUGAUAGGCGCAAG [Fam3.1 aminoacylation ribozyme variant] | 2.19 | 0.732 | 1.26 | 0.765 | 0.707 | 0.544 |
| AAGUUUGCUGAUAGUCGGAAG [Fam3.1 aminoacylation ribozyme variant] | 0.837 | 0.72 | 0.933 | 0.838 | 0.849 | 0.832 |
| AAGUUUGCUGAUAGUCUCAAG [Fam3.1 aminoacylation ribozyme variant] | 1.94 | 1.11 | 1.01 | 1.13 | 0.963 | 1.28 |
| AAGUUUGCUGGUAGUCGCAAG [Fam3.1 aminoacylation ribozyme variant] | 1.12 | 0.97 | 0.778 | 0.86 | 0.96 | 0.864 |
| AAGUUUGCUUAUAGUGGCAAG [Fam3.1 aminoacylation ribozyme variant] | 1.38 | 0.789 | 0.861 | 0.711 | 0.644 | 0.94 |
| AAGUUUGCUUAUGGUCGCAAG [Fam3.1 aminoacylation ribozyme variant] | 0.863 | 0.54 | 0.728 | 0.727 | 0.603 | 0.782 |
| AAGUUUGCUUCUAGUCGCAAG [Fam3.1 aminoacylation ribozyme variant] | 1.54 | 1.39 | 0.998 | 1.23 | 1.2 | 1.11 |
| AAGUUUGGUAAGAGUCGCAAG [Fam3.1 aminoacylation ribozyme variant] | 1.7 | 1.58 | 1.3 | 1.3 | 1.43 | 1.31 |
| AAGUUUGGUAAUAGUCACAAG [Fam3.1 aminoacylation ribozyme variant] | 1.51 | 1.04 | 1.01 | 1.07 | 0.902 | 0.739 |
| AAGUUUGGUAAUAGUCCCAAG [Fam3.1 aminoacylation ribozyme variant] | 1.39 | 1.32 | 1.05 | 0.864 | 0.963 | 1.04 |
| AAGUUUGGUAAUAGUCGCUAG [Fam3.1 aminoacylation ribozyme variant] | 1.64 | 1.18 | 1.05 | 0.958 | 0.996 | 1.47 |
| AAGUUUGUUAAUAAUCGCAAG [Fam3.1 aminoacylation ribozyme variant] | 1.05 | 0.928 | 0.824 | 0.842 | 0.995 | 0.883 |
| AAGUUUGUUAAUACUCGCAAG [Fam3.1 aminoacylation ribozyme variant] | 1.07 | 0.893 | 0.692 | 0.81 | 0.76 | 0.7 |
| AAGUUUGUUAAUAGUCGCAAA [Fam3.1 aminoacylation ribozyme variant] | 2.15 | 1.8 | 1.63 | 1.32 | 1.68 | 1.43 |
| AAGUUUGUUAAUAGUCGCAAU [Fam3.1 aminoacylation ribozyme variant] | 2.29 | 1.73 | 1.5 | 1.45 | 1.51 | 1.94 |
| AAGUUUGUUAAUAGUCUCAAG [Fam3.1 aminoacylation ribozyme variant] | 1.62 | 1.22 | 1.23 | 1.15 | 1.02 | 1.23 |
| AAGUUUUCGAAUAGUCGCAAG [Fam3.1 aminoacylation ribozyme variant] | 3.28 | 2.14 | 1.82 | 1.81 | 1.86 | 2.24 |
| AAGUUUUCUAAUAGUCGCAAG [Fam3.1 aminoacylation ribozyme variant] | 2.64 | 1.51 | 1.23 | 1.31 | 1.32 | 1.58 |
